First the molecules themselves.
T1: B1153 protein (human, UniProt Q96JG6 1-964)
T1 construct: also called indicator protein
T1 sequence: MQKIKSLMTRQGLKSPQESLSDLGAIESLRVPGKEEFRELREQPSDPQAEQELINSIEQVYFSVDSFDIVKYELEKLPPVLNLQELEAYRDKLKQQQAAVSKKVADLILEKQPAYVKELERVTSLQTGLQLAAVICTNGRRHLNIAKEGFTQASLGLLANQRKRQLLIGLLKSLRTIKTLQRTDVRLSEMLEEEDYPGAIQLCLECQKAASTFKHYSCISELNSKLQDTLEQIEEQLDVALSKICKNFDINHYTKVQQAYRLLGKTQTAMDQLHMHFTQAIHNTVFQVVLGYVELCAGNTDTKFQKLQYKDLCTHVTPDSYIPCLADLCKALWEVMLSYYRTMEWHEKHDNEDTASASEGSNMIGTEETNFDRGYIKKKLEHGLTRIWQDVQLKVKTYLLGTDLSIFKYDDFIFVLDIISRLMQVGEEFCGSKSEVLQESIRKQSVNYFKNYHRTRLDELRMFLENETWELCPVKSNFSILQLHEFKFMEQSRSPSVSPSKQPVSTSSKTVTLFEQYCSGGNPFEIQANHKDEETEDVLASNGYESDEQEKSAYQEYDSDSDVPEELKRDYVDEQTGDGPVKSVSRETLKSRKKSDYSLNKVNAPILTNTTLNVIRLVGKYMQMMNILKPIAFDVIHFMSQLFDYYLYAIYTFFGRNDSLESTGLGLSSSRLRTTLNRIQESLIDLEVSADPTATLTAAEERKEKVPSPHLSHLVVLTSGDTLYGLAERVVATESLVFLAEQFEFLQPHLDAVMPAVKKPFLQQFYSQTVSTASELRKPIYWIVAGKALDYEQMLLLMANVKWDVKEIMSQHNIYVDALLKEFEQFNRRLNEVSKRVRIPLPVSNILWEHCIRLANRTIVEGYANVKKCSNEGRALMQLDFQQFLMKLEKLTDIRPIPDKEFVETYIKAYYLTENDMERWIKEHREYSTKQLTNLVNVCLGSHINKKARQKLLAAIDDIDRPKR

B1: myosin binding subunit 85 partial sequence, Prey-No. 11 (656 aa to 782 aa) (other, human, UniProt Q9BZL4 656-782, looked up)
chain: GPSARRQRWQRDLNPEPEPESEEPDGGFRTLYAELRRENERLREALTETTLRLAQLKVELERATQRQERFAERPALLELERFERRALERKAAELEEELKALSDLRADNQRLKDENAALIRVISKLSK
notes: range 656-782; Prey clone from a Human Brain cDNA library; The prey fusion domain is not described
B2: myosin binding subunit 85 partial sequence, Prey-No. 3 (590 aa to 782 aa) (other, human, UniProt Q9BZL4 590-782, looked up)
chain: PSRRPRVPGVENSDSPAQRAEAPDGQGPGPQAAREHRKVGKEWRGPAEGEEAEPADRSQESSTLEGGPSARRQRWQRDLNPEPEPESEEPDGGFRTLYAELRRENERLREALTETTLRLAQLKVELERATQRQERFAERPALLELERFERRALERKAAELEEELKALSDLRADNQRLKDENAALIRVISKLSK
notes: range 590-782; Prey clone from a Human Brain cDNA library in the yeast two-hybrid system
B3: myosin binding subunit 85 partial sequence, Prey-No. 4 (590 aa to 782 aa) (other, human, UniProt Q9BZL4 590-782, looked up)
chain: PSRRPRVPGVENSDSPAQRAEAPDGQGPGPQAAREHRKVGKEWRGPAEGEEAEPADRSQESSTLEGGPSARRQRWQRDLNPEPEPESEEPDGGFRTLYAELRRENERLREALTETTLRLAQLKVELERATQRQERFAERPALLELERFERRALERKAAELEEELKALSDLRADNQRLKDENAALIRVISKLSK
notes: range 590-782; Prey clone from a Human Brain cDNA library; It has the same amino acid range as Prey-No. 3 and differs only in 3'-UTR length; The prey fusion domain is not described

The assay concerns the target T1, B1153 protein. In words: yeast two-hybrid (PROQUEST, GAL4), B1153 full-length ORF as bait, Human Brain cDNA library prey. As for the experimental part: By the PROQUEST™ TWO-Hybrid system (Invitrogen) utilizing the in vivo gene expression system of GAL4 series yeast, a search for a protein that interacts with the protein of this invention was carried out. Screening for a protein that interacts with B1153 was conducted for the Human Brain cDNA library with the full-length ORF region (86 bp to 2977 bp) of the B1153 gene as a bait. In this case, protocol according to the manual attached to the system was used.
With B1, the binding result was “binds”. Then B2, with “binds”; and B3, with “binds”.
